Measurements published in patent US11795454B2, “Targeted delivery system” (Cedars-Sinai Medical Center, priority 2009, dated 2023).
Entries after “also recorded” stand apart in the source; their conditions may differ. Where two headings read alike, the source gives them in different places.

Assays:
MDA-MB-435 tumors [1] = experiment: HerDox/Dox tumor targeting, biodistribution and pharmacokinetics by fluorescence imaging
Method: Tumor-bearing mice were injected with 0.02 mg/kg (final Dox dose) of HerDox or Dox via the tail vein and imaged with a custom small animal imager. FIG. 19A, Imaging of live mice after TV delivery of HerDox. Time points are shown as minutes after injection. Tumors are indicated by arrows. FIG. 19B, Imaging of tumors and tissues harvested at 3 h after injection of HerDox or Dox. Fluorescence signal from Dox is pseudo-colored according to the color bar, with a shift toward 100 indicating high fluorescence intensity.
(§1) FIG. 29A, Live mouse imaging of HerDox at indicated time points after injection. Arrows, Tumors. 29B-29C, Comparative biodistribution of HerDox and Dox in tissues harvested at 3 h post-injection. FIG. 29B, Imaging of biodistribution in harvested tissues. Pseudocolored FI corresponds to the color bar. Max, highest FI. FIG. 29C, Quantification of HerDox and Dox biodistribution, showing Dox FI/tissue. FIG. 29D. Comparative pharmacokinetics of HerDox and Dox in mice with tumors expressing differential HER2. Tissues were harvested from independently injected mice euthanized at indicated time points after injection and FI/tissue acquired using a small animal imaging system as described herein.
Mice received a single tail vein injection of Dox alone or the complex (HerDox) (0.02 mg/kg with respect to Dox conc) and were imaged live using a customized macro-illumination and detection system.
(§2) Heart rate and body temperature were monitored. […] Three beats were averaged for each measurement.
A customized macro-illumination and detection system was used for in vivo and tissue imaging. Dox was excited with the 488 nm line of a Coherent Innova ArKr laser. Laser light (300 mW) was directed into a light-tight box via mirrors and expanded by an engineered circular tophat diffuser (Thorlabs ED1-C20) to a uniform circular beam of approximately 15 cm in diameter. The incidence angle to the vertical plane was approximately 150. Fluorescence light was collected via a telecentric lens (Melles-Griot 59LGG925 base lens with a 59LGL428 attachment lens) that can operate at f/#2, has a magnification of 0.9, working distance of 257 mm and a depth of field of 81.5 mm. A bandpass filter (580 nm with a 50 nm bandwidth) was used in the emission pathway to reject the excitation light. Images showing FI were collected with a cooled CCD camera (Hamamatsu ORCA-ER). Where indicated, a Maestro imager was used (Cedars-Sinai Imaging Core Facility). ImageJ was used to calculate average fluorescence intensities of the overall region of each selected tissue.
MDA-MB-435 tumor-bearing mice were imaged live after a single tail vein injection of HerDox, in order to visualize tumor-targeting ability in vivo.

MDA-MB-435 (HER2+) cells = experiment: HerDox targeted toxicity in vitro, separate cultures; format: cell-based, human; settings: MDA-MB-435, day 3
Method: All treatments, N=3. FIG. 27A. Comparing cytotoxicity to HER2+ (MDAMB-435) and HER2− (MDA-MB-231) cells in separate cultures. Left, Relative survival (as % of untreated cells) on day 3 of treatment. Right, Micrograph of live cells after treatment. Control, mock (HBS) treatment. FIG. 27B, Receptor specificity of cytotoxicity. […] FIG. 27C, Toxicity to cells displaying differential HER2. Cytotoxicities from HerDox titrations were assessed on each cell line by metabolic assay and confirmed by crystal violet stain on day 3 of treatment. CD50 values (shown in log scale) were determined by non-linear regression analyses of HerDox killing curves using GraphPad Prism. The relative HER2 level of each cell line is shown next to each CD50 value. FIG. 27D, Targeting in a mixed MDA-MB-435(HER2+,GFP−)/MDA-MB-231(HER2−,GFP+) cell culture. Survival was determined by calculating the relative doubling time (DT) of experimental (exp) cells normalized by mock-treated (con) cells based on crystal violet stains (total cells) and GFP fluorescence (MDAMB-231 cells), and applying DTMDA-MB-435=DTTotal-DTMDA-MB-231 as previously described. Relative survival is shown for Day 2 of treatment. FIG. 27E, Targeted glioma cell death in vitro. U251 cells were treated once with the indicated HerDox (and competitive inhibitor where indicated) or Dox doses and measured for cell survival at the indicated time points after treatment. * P<0.05 compared to Mock.
For all in vitro treatments, cell lines were grown for ˜36 h after plating (104/well in 96-well dishes) to allow receptor re-expression, followed by media replacement with new media containing indicated constructs in reduced volume at the indicated final molarities for 4 h with rocking, followed by supplementation with additional media and continued growth for the indicated time periods. Except for the experiments performed on the U251 glioma cells (which received a one-time treatment), cells received these treatments daily while separate sets of wells were assessed for cell death by either metabolic assay (CellTiter Promega Corporation, Madison, WI, USA) or crystal violet stain each day. Where indicated, cells received competitive inhibitor (eHRG) at 10× molar excess for 30 min-1 h at 4° C. before treatment. Treatment of mixed (HER2+/HER2−) cell cultures with HerDox or Dox (0.5 uM), and cell surface receptor subunit level determination were performed as previously described.

MDA-MB-435 tumors [2] = experiment: Therapeutic efficacy in vivo, daily i.v. injections for 7 days; parameters: species or system mouse; settings: for tumor growth: 0.004 mg/kg Dox equivalent, daily i.v. for seven days
U87 human glioma tumors = test system: U87 human glioma tumors
Method: as §1, §2
A customized macro-illumination and detection system was used for in vivo and tissue imaging. Dox was excited with the 488 nm line of a Coherent Innova ArKr laser. […] Fluorescence light was collected via a telecentric lens (Melles-Griot 59LGG925 base lens with a 59LGL428 attachment lens) that can operate at f/#2, has a magnification of 0.9, working distance of 257 mm and a depth of field of 81.5 mm. […] ImageJ was used to calculate average fluorescence intensities of the overall region of each selected tissue. […]

[3] = Method: FIG. 26A. Stability in blood. […] N=3. […] Control conditions preventing digest include using heat-inactivated (HI) serum and 0° C. incubation. FIG. 26C. Assessing Dox retention in serum.
To study stability in blood, HerDox or Dox (60 uM each) were incubated in equivalent volumes of whole blood (containing 0.5 mM EDTA to prevent coagulation and freshly collected from the aorta of an anesthetized mouse following IACUC-approved procedures) for up to 60 min at 37° C., followed by centrifugation through 10K mwco filters. Retentate and filtrate fluorescences were extrapolated against a Dox calibration curve performed in blood plasma to correct for plasma-induced fluorescence shift. […] Control conditions preventing digest include using heat-inactivated serum and 0° C. incubation. […] Filtrates were collected and membranes washed 3× with HBS before collection and fluorescence measurement of retentates. All fluorescence spectra were obtained using a 515 nm cutoff filter.

[4] = maximum FI, ˜3 h after injection
[5] = single tail vein injection, 0.02 mg/kg Dox

Molecule: COc1cccc2c1C(=O)c1c(O)c3c(c(O)c1C2=O)C[C@@](O)(C(=O)CO)C[C@@H]3O[C@H]1C[C@H](N)[C@H](O)[C@H](C)O1.Cl [Dox, Doxorubicin-HCl, reference compound]
- fluorescence in the lungs and skeletal muscle (MDA-MB-435 tumors [1]; harvested ˜3 h after injection): Lower levels of fluorescence
- fluorescence in the kidneys (MDA-MB-435 tumors [1]; mouse, in vivo): detectable fluorescence
- fluorescence in the liver (MDA-MB-435 tumors [1]; mouse, in vivo): detectable fluorescence
- fluorescence in the tumors (MDA-MB-435 tumors [1]; mouse, in vivo): detectable fluorescence
- tumor accumulated Dox lower compared to HerDox (MDA-MB-435 tumors [1]; mouse, in vivo): 1000 fluorescence units
- toxicity / survival (MDA-MB-435 (HER2+) cells): no preference
- tumor growth (MDA-MB-435 tumors [2]): low efficacy
- tumor ablation compared with HerDox (MDA-MB-435 tumors [2]; 10× higher Dox dose (0.04 mg/kg)): slightly less effective
- delivery to U87 tumors higher compared to MDA-MB-435 tumors (U87 human glioma tumors; mouse, in vivo, iv): 200-300 fluorescence units per tissue
- Dox loss from retentates [3]: ~70%
- protection of the DNA duplex from serum degradation [3]: partially protected the DNA from serum degradation
- remaining free Dox (weak or non-specific binding to serum proteins) ([3]; mouse, serum): ~30%

B1: HerDox: self-assembled nanoparticle of oligonucleotide duplex, doxorubicin and HerPBK10 (conjugate)
chain: LPPRLKEMKSQESAAGSKLVLRCETSSEYSSLRFKWFKNGNELNRKNKPQNIKIQKKPGKSELRINKASLADSGEYMCKVISKLGNDSASANITIVESNEIITGMPASTEGAYVSSESPIRISVSTEGANTSSSTSTSTTGTSHLVKCAEKEKTFCVNGGECFMVKDLSNPSRYLCKCQPGFTGARCTENVPMKVQNQEKAEELYMRRAAMYEEGPPPSYESVVSAAPVAAALGSPFDAPLDPPFVPPRYLRPTGGRNSIRYSELAPLFDTTRVYLVDNKSTDVASLNYQNDHSNFLTTVIQNNDYSPGEASTQTINLDDRSHWGGDLKTILHTNMPNVNEFMFTNKFKARVMVSRLPTKDNQVELKYEWVEFTLPEGNYSETMTIDLMNNAIVEHYLKVGRQNGVLESDIGVKFDTRNFRLGFDPVTGLVMPGVYTNEAFHPDIILLPGCGVDFTHSRLSNLLGIRKRQPFQEGFRITYDDLEGGNIPALLDVDAYQASLKDDTEQGGGGAGGSNSSGSGAEENSNAAAAAMQPVEDMNDHAIRGDTFATRAEEKRAEAEAAAEAAAPAAQPEVEKPQKKPVIKPLTEDSKKRSYNLISNDSTFTQYRSWYLAYNYGDPQTGIRSWTLLCTPDVTCGSEQVYWSLPDMMQDPVTFRSTRQISNFPVVGAELLPVHSKSFYNDQAVYSQLIRQFTSLTHVFNRFPENQILARPPAPTITTVSENVPALTDHGTLPLRNSIGGVQRVTITDARRRTCPYVYKALGIVSPRVLSSRTFKKKKKKKKKK
- fluorescence in heart, spleen, lungs, and skeletal muscle (MDA-MB-435 tumors [1]; harvested ˜3 h after injection): did not exhibit any fluorescence; also recorded: no detectable fluorescence
- fluorescence in the kidneys (MDA-MB-435 tumors [1]; harvested ˜3 h after injection): barely detectable
- fluorescence in the liver (MDA-MB-435 tumors [1]; harvested ˜3 h after injection): substantially lower levels of fluorescence
- fluorescence in the tumors (MDA-MB-435 tumors [1]; harvested ˜3 h after injection): intense fluorescence
- kidney FI lower than tumors (MDA-MB-435 tumors [1]; [4]): 65%
- liver FI lower than tumors (MDA-MB-435 tumors [1]; [4]): 45%
- time of kidney entry (MDA-MB-435 tumors [1]; pharmacokinetics, single i.v. injection): ≤ 10 min
- time detectable in the tumors after injection (MDA-MB-435 tumors [1]; [5]): up to 100 min
- time of accumulation at the tumors after injection (MDA-MB-435 tumors [1]; [5]): ≤ 20 min
- tumor accumulation higher compared to normal tissue (MDA-MB-435 tumors [1]; up to 24 h, heart, liver, muscle, spleen, lung, kidneys): 500-1000 fluorescence units higher/tissue
- toxicity / survival (MDA-MB-435 (HER2+) cells): significant toxicity
- tumor growth (MDA-MB-435 tumors [2]): ablation of tumor growth
- dose for tumor ablation lower compared to untargeted doxorubicin (MDA-MB-435 tumors [2]; intravenous delivery): > 10 ×
- delivery to U87 tumors lower compared to MDA-MB-435 tumor-bearing mice (U87 human glioma tumors; i.v.): ~50%
- Dox loss from retentates ([3]; 100% mouse serum, 30 min at 37° C., 10K mwco): no Dox loss was detected
